# From PMC8083607 (2021)
# Target: SARS-CoV-2 RBD (recombinant, limits not stated) (SARS-CoV-2, UniProt P0DTC2 333-526)
# Experiment: SPR
row,Binder,Kd [nM]
1,"FC08 (antibody, V domains shown) VH: QLLQQSGAEVKKPGSSVKVSCKASGGTFSSYAISWVRQAPGQGLEWMGGIIPIIGIANYAQKFQGRVTITADKSTSTAYMELSSLRSEDTAVYYCARERGYSGYGAAYYFDYWGQGTLVTVSS VL: SVLTQPPSVSGAPGQRVTISCTGSSSNIGAGYDVHWYQQLPGTAPKLLIYGNSNRPSGVPDRFSGSKSGTSASLAITGLQAEDEADYYCQSYDSSLSGSVFGGGTKLTVL",0.298
2,"FC01 (antibody, V domains shown) VH: EVQLLESGTEVKKPGSSVKVSCKASGGTFSSYAISWVRQAPGQGLEWMGGIIPILGIANYAQKFQGRVTITADKSTSTAYMELSSLRSEDTAVYYCARERGYSGYGAAYYFDYWGQGTLVTVSS VL: QSVLTQAPSVSGAPGQSVTISCTGSSSNIGAGYDVHWYQQLPGTAPKLLIYGNNNRPSGVPDRFSGSKSGTSASLAITGLQAEDEADYYCQSYDSSLSKGVFGGGTKLTVL",0.628
3,"FC11 (antibody, V domains shown) VH: EVQLLESGGGVVQPGRSLRLSCAASGFTFSYYGMHWVRQAPGTGLEWVAVISYDGSNEYYADSVKGRFTISRDNSKNTLYLQMNSLRAEDTAVYYCAKAMFLGDSSGLTGLDMDVWGQGTTVTVSS VL: DIELTQSPGTLSLSPGERATLSCRASQSVSSYLAWYQQKPGQAPRLLIYDASNRATGIPARFSGSGSGTDFTLTISSLEPEDFALYYCQQRGNWPPTFGGGTKLEIK",5.24

# Target: SARS-CoV-2 NTD (recombinant, limits not stated) (SARS-CoV-2)
# Experiment: SPR
row,Binder,Kd [nM]
1,"FC06 (antibody, V domains shown) VH: EVQLLESGGGVVQPGRSLRLSCAASGFTFSSYAMHWVRQAPGEGLEWVAVISYDGSNKYYADSVKGRFTISRDNSKNTLYLQMNSLRAGDTAVYYCARLNYYGSGFYYRLGDDYWGQGTLVTVSS VL: DIELTQSPSSLSASEGDRVTITCRASQGIRNDLGWYQQKPGKAPKRLIYGAPSLQSGVPSRFSGSGSGTEFTLTISTLQPEDSATYYCLQHNKYPWTFGQGTKVEIK",7.49
2,"FC07 (antibody, V domains shown) VH: EVQLLESGGGLVQPGGSLRLSCAASGFTFGSYAMSWVRQAPGKGLEWVSSISGSGGSTYYADSAKGRFTISRDNSKNTLYLQMNSLRAEDTAVYYCAKSPNYDILTGYYNWAGYYFDYWGQGTLVTVSS VL: DIELTQSPGTLSLSPGDRATLSCRASRGVSSNSLAWYRQRPGESPRLVISGASTRATGIPERFSGSGSGTDFSLSISRLQPEDFAVYYCQQYGSFPFTFGPGTTVDV",63.4
3,"FC05 (antibody, V domains shown) VH: VQLLEQSGAEVKKPGASVRVSCKVSGYTLPEVAMHWVRQAPGKGLEWMGGFDPEDGETMYAQKFQGRVTMTEDTSTDTAYMELSSLRSEDTAVYYCATTTPFSSSYWFDPWGQGTLVTVSS VL: QSVLTQAPSVSGAPGQKVTISCSGSSSNIGNNYVSWYQQLPGTAPKLLIYDNNKRPSGIPDRFSGSKSGTSATLGITGLQTGDEADYYCGTWDSSLSAVVFGGGTKLTVL",4.32

# Target: SARS-CoV-2 S2 (recombinant) (SARS-CoV-2)
# Experiment: SPR
row,Binder,Kd [nM]
1,"FC118 (antibody, V domains shown) VH: EVQLLESGGGVVQPGRSLRLSCAASGFTFSSYAMHWVRQAPGKGLEWVAVISYDGSNKYYADSVKGRFTISRDNSKNTLYLQMNSLRAEDTAVYYCARARGGSYLYGMDVWGQGAMVTVSS VL: DIELTQSPSSLAASVGDTVTITCRASQTIGKYLTWYQKKPGRAPDLLIYAASRLQSGVPSRFSGRASGTEFTLTISSLQPEDFATYFCQHTYRTLSFGPGTKVDLK",41.1
2,"FC124 (antibody, V domains shown) VH: EVQLLESGGGVVQPGRSLRLSCAASGFTFSSYAMHWVRQAPGKGLEWVALISYDGINKYYADSVNGRFTISRDNSKYTLYLQMNSLRAEDTAVYYCARAHRGSYYYGMDVWGQGTMVTVSS VL: DIELTQSPGTLSLSPGERATLYCRASQSVSSSYLAWYQQKPGQAPRLLIYGAFGRAAGIPDRFRGSGSGTQFTLTISRLEPEDSAVYFCQQYGQSPLYSFGQGTKLEIK",38.6
3,"FC122 (antibody, V domains shown) VH: EVQLLESGGGVVQPGRSLRLSCAASGFTFSSYAMHWVRQAPGKGLEWVALISYDGINKYYADSVNGRFTISRDNSKYTLYLQMNSLRAEDTAVYYCARAHRGSYYYGMDVWGQGTMVTVSS VL: DIELTQSPSSLSASVGDSVTITCRGSQIISRYLNWYQQKPGKAPKLLIYAASTLQSGVPSRFSGSGSGTEFTLSISSLEPEDFATYYCQQSYAIPYTFGQGTRLEI",9.44
4,"FC120 (antibody, V domains shown) VH: EVQLLESGAEVKKPGASVKVSCKASGYTFTSYYMHWVRQAPGQGLEWMGIINPSGGSTSYAQKFQGRVTMTRDTSTSTVYMELSSLRSEDTAVYYCARGGGHALDIWGQGTMVTVSS VL: QSVLTQPPSVSGAPGQKVTISCSGSSSNIGNNYVSWYQQLPGTAPKLLIYDNNKRPSGIPDRFSGSKSGTSATLGITGLQTGDEADYYCGTWDSSLSAWVFGGGTKLTVL",21.8
